The source of these data is US20260242839A1, “GLYCOSIDE PRODUCT BIOSYNTHESIS AND RECOVERY” (Manus Bio Inc., priority 2023, published 2026).

The assay has as its system steviol glycoside. The assay can be described thus: steviol glycoside bioconversion by E. coli expressing individual mutations of UGT SEQ ID NO: 14. The following applies: fold improvement of % conversion vs parent UGT SEQ ID NO: 14; stevia leaf extract and glucose fed; 37° C., 48 hr. It is filed as cell-based. The procedure:
Fold improvement is with respect to % steviol glycoside conversion of the parent UGT enzyme of SEQ ID NO: 14. The UGT enzyme of SEQ ID NO: 15 has the following mutations from SEQ ID NO: 14: ins_A2_T3_RR, H59P, A238E, L417F. Stevia leaf extract and glucose were fed to the bioconversion strains. Bioconversion took place at 37° C. for 48 hr. Data were quantified by reverse phase LC DAD to quantify conversion of steviol glycosides.
Fold improvement (FI) is with respect to % steviol glycoside conversion.

B1: ins_A2_T3_RR: SEQ ID NO: 14 with insertion of Arg-Arg between A2 and T3 (protein)
chain: MARRTKNSSGMSLAERFWLTLSRSSLVVGRSCVEFEPETVPLLSTLRGKPITFLGLMPPLHEGRREDGEDATVRWLDAQPAKSVVYVALGSEVPLGVEKVHELALGLELAGTRFLWALRKPTGVSDADLLPAGFEERTRGRGVVATRWVPQMSILAHAAVGAFLTHCGWNSTIEGLMFGHPLIMLPITGDQGPNARLIEAKNAGLQVARNDGDGSFDREGVAAAIRAVAVEEESSKVFQAKAKKLQEIVADMACHERYIDGFIQQLRSYKDDSGYSSSYAAAAGMHVVICPWLAFGHLLPCLDLAQRLASRGHRVSFVSTPRNISRLPPVRPALAPLVAFVALPLPRVEGLPDGAESTNDVPHDRPDMVELHRRAFDGLAAPFSEFLGTACADWVIVDSFHHWAAAAALEHKVPCAMMLLGSAEMIASIADERLEHAETESPAAAGQGRPAAAPTFEVARMKLIR
Take B1: the “FI %Stevioside→rebE” value amounted to 2.4 and the “FI %rebA→rebD” value is given as 2.0.

B2: G94T: mutation to UGT enzyme of SEQ ID NO: 14 (protein)
chain: MATKNSSGMSLAERFWLTLSRSSLVVGRSCVEFEPETVPLLSTLRGKPITFLGLMPPLHEGRREDGEDATVRWLDAQPAKSVVYVALGSEVPLTVEKVHELALGLELAGTRFLWALRKPTGVSDADLLPAGFEERTRGRGVVATRWVPQMSILAHAAVGAFLTHCGWNSTIEGLMFGHPLIMLPITGDQGPNARLIEAKNAGLQVARNDGDGSFDREGVAAAIRAVAVEEESSKVFQAKAKKLQEIVADMACHERYIDGFIQQLRSYKDDSGYSSSYAAAAGMHVVICPWLAFGHLLPCLDLAQRLASRGHRVSFVSTPRNISRLPPVRPALAPLVAFVALPLPRVEGLPDGAESTNDVPHDRPDMVELHRRAFDGLAAPFSEFLGTACADWVIVDSFHHWAAAAALEHKVPCAMMLLGSAEMIASIADERLEHAETESPAAAGQGRPAAAPTFEVARMKLIR
Take B2: the “FI %Stevioside→rebE” value is given as 1.6 and the “FI %rebA→rebD” value is listed as 1.4.

B3: L58S: mutation to UGT enzyme of SEQ ID NO: 14 (protein)
chain: MATKNSSGMSLAERFWLTLSRSSLVVGRSCVEFEPETVPLLSTLRGKPITFLGLMPPSHEGRREDGEDATVRWLDAQPAKSVVYVALGSEVPLGVEKVHELALGLELAGTRFLWALRKPTGVSDADLLPAGFEERTRGRGVVATRWVPQMSILAHAAVGAFLTHCGWNSTIEGLMFGHPLIMLPITGDQGPNARLIEAKNAGLQVARNDGDGSFDREGVAAAIRAVAVEEESSKVFQAKAKKLQEIVADMACHERYIDGFIQQLRSYKDDSGYSSSYAAAAGMHVVICPWLAFGHLLPCLDLAQRLASRGHRVSFVSTPRNISRLPPVRPALAPLVAFVALPLPRVEGLPDGAESTNDVPHDRPDMVELHRRAFDGLAAPFSEFLGTACADWVIVDSFHHWAAAAALEHKVPCAMMLLGSAEMIASIADERLEHAETESPAAAGQGRPAAAPTFEVARMKLIR
B3: the “FI %Stevioside→rebE” value is given as 1.5 and the “FI %rebA→rebD” value was determined as 1.4.

B4: S323A: mutation to UGT enzyme of SEQ ID NO: 14 (protein)
chain: MATKNSSGMSLAERFWLTLSRSSLVVGRSCVEFEPETVPLLSTLRGKPITFLGLMPPLHEGRREDGEDATVRWLDAQPAKSVVYVALGSEVPLGVEKVHELALGLELAGTRFLWALRKPTGVSDADLLPAGFEERTRGRGVVATRWVPQMSILAHAAVGAFLTHCGWNSTIEGLMFGHPLIMLPITGDQGPNARLIEAKNAGLQVARNDGDGSFDREGVAAAIRAVAVEEESSKVFQAKAKKLQEIVADMACHERYIDGFIQQLRSYKDDSGYSSSYAAAAGMHVVICPWLAFGHLLPCLDLAQRLASRGHRVSFVSTPRNIARLPPVRPALAPLVAFVALPLPRVEGLPDGAESTNDVPHDRPDMVELHRRAFDGLAAPFSEFLGTACADWVIVDSFHHWAAAAALEHKVPCAMMLLGSAEMIASIADERLEHAETESPAAAGQGRPAAAPTFEVARMKLIR
Take B4: the “FI %Stevioside→rebE” value was found to be 1.3 and the “FI %rebA→rebD” value came out at 1.3.

B5: W401F: mutation to UGT enzyme of SEQ ID NO: 14 (protein)
chain: MATKNSSGMSLAERFWLTLSRSSLVVGRSCVEFEPETVPLLSTLRGKPITFLGLMPPLHEGRREDGEDATVRWLDAQPAKSVVYVALGSEVPLGVEKVHELALGLELAGTRFLWALRKPTGVSDADLLPAGFEERTRGRGVVATRWVPQMSILAHAAVGAFLTHCGWNSTIEGLMFGHPLIMLPITGDQGPNARLIEAKNAGLQVARNDGDGSFDREGVAAAIRAVAVEEESSKVFQAKAKKLQEIVADMACHERYIDGFIQQLRSYKDDSGYSSSYAAAAGMHVVICPWLAFGHLLPCLDLAQRLASRGHRVSFVSTPRNISRLPPVRPALAPLVAFVALPLPRVEGLPDGAESTNDVPHDRPDMVELHRRAFDGLAAPFSEFLGTACADWVIVDSFHHFAAAAALEHKVPCAMMLLGSAEMIASIADERLEHAETESPAAAGQGRPAAAPTFEVARMKLIR
Take B5: the “FI %Stevioside→rebE” value was determined as 1.3 and the “FI %rebA→rebD” value was 1.3.

B6: F51W: mutation to UGT enzyme of SEQ ID NO: 14 (protein)
chain: MATKNSSGMSLAERFWLTLSRSSLVVGRSCVEFEPETVPLLSTLRGKPITWLGLMPPLHEGRREDGEDATVRWLDAQPAKSVVYVALGSEVPLGVEKVHELALGLELAGTRFLWALRKPTGVSDADLLPAGFEERTRGRGVVATRWVPQMSILAHAAVGAFLTHCGWNSTIEGLMFGHPLIMLPITGDQGPNARLIEAKNAGLQVARNDGDGSFDREGVAAAIRAVAVEEESSKVFQAKAKKLQEIVADMACHERYIDGFIQQLRSYKDDSGYSSSYAAAAGMHVVICPWLAFGHLLPCLDLAQRLASRGHRVSFVSTPRNISRLPPVRPALAPLVAFVALPLPRVEGLPDGAESTNDVPHDRPDMVELHRRAFDGLAAPFSEFLGTACADWVIVDSFHHWAAAAALEHKVPCAMMLLGSAEMIASIADERLEHAETESPAAAGQGRPAAAPTFEVARMKLIR
For the molecule B6, the “FI %Stevioside→rebE” value is reported as 1.7 and the “FI %rebA→rebD” value was found to be 1.4.

B7: A79P: mutation to UGT enzyme of SEQ ID NO: 14 (protein)
chain: MATKNSSGMSLAERFWLTLSRSSLVVGRSCVEFEPETVPLLSTLRGKPITFLGLMPPLHEGRREDGEDATVRWLDAQPPKSVVYVALGSEVPLGVEKVHELALGLELAGTRFLWALRKPTGVSDADLLPAGFEERTRGRGVVATRWVPQMSILAHAAVGAFLTHCGWNSTIEGLMFGHPLIMLPITGDQGPNARLIEAKNAGLQVARNDGDGSFDREGVAAAIRAVAVEEESSKVFQAKAKKLQEIVADMACHERYIDGFIQQLRSYKDDSGYSSSYAAAAGMHVVICPWLAFGHLLPCLDLAQRLASRGHRVSFVSTPRNISRLPPVRPALAPLVAFVALPLPRVEGLPDGAESTNDVPHDRPDMVELHRRAFDGLAAPFSEFLGTACADWVIVDSFHHWAAAAALEHKVPCAMMLLGSAEMIASIADERLEHAETESPAAAGQGRPAAAPTFEVARMKLIR
B7: the “FI %Stevioside→rebE” value amounted to 1.4 and the “FI %rebA→rebD” value turned out to be 1.3.

B8: V336I_F338L: mutation to UGT enzyme of SEQ ID NO: 14 (protein)
chain: MATKNSSGMSLAERFWLTLSRSSLVVGRSCVEFEPETVPLLSTLRGKPITFLGLMPPLHEGRREDGEDATVRWLDAQPAKSVVYVALGSEVPLGVEKVHELALGLELAGTRFLWALRKPTGVSDADLLPAGFEERTRGRGVVATRWVPQMSILAHAAVGAFLTHCGWNSTIEGLMFGHPLIMLPITGDQGPNARLIEAKNAGLQVARNDGDGSFDREGVAAAIRAVAVEEESSKVFQAKAKKLQEIVADMACHERYIDGFIQQLRSYKDDSGYSSSYAAAAGMHVVICPWLAFGHLLPCLDLAQRLASRGHRVSFVSTPRNISRLPPVRPALAPLIALVALPLPRVEGLPDGAESTNDVPHDRPDMVELHRRAFDGLAAPFSEFLGTACADWVIVDSFHHWAAAAALEHKVPCAMMLLGSAEMIASIADERLEHAETESPAAAGQGRPAAAPTFEVARMKLIR
Turning to B8, the “FI %Stevioside→rebE” value was 1.5 and the “FI %rebA→rebD” value worked out at 1.4.

B9: M250D_A251E_C252V: mutation to UGT enzyme of SEQ ID NO: 14 (protein)
chain: MATKNSSGMSLAERFWLTLSRSSLVVGRSCVEFEPETVPLLSTLRGKPITFLGLMPPLHEGRREDGEDATVRWLDAQPAKSVVYVALGSEVPLGVEKVHELALGLELAGTRFLWALRKPTGVSDADLLPAGFEERTRGRGVVATRWVPQMSILAHAAVGAFLTHCGWNSTIEGLMFGHPLIMLPITGDQGPNARLIEAKNAGLQVARNDGDGSFDREGVAAAIRAVAVEEESSKVFQAKAKKLQEIVADDEVHERYIDGFIQQLRSYKDDSGYSSSYAAAAGMHVVICPWLAFGHLLPCLDLAQRLASRGHRVSFVSTPRNISRLPPVRPALAPLVAFVALPLPRVEGLPDGAESTNDVPHDRPDMVELHRRAFDGLAAPFSEFLGTACADWVIVDSFHHWAAAAALEHKVPCAMMLLGSAEMIASIADERLEHAETESPAAAGQGRPAAAPTFEVARMKLIR
Regarding B9, the “FI %Stevioside→rebE” value stood at 1.5 and the “FI %rebA→rebD” value worked out at 1.4.

B10: T186M: mutation to UGT enzyme of SEQ ID NO: 14 (protein)
chain: MATKNSSGMSLAERFWLTLSRSSLVVGRSCVEFEPETVPLLSTLRGKPITFLGLMPPLHEGRREDGEDATVRWLDAQPAKSVVYVALGSEVPLGVEKVHELALGLELAGTRFLWALRKPTGVSDADLLPAGFEERTRGRGVVATRWVPQMSILAHAAVGAFLTHCGWNSTIEGLMFGHPLIMLPIMGDQGPNARLIEAKNAGLQVARNDGDGSFDREGVAAAIRAVAVEEESSKVFQAKAKKLQEIVADMACHERYIDGFIQQLRSYKDDSGYSSSYAAAAGMHVVICPWLAFGHLLPCLDLAQRLASRGHRVSFVSTPRNISRLPPVRPALAPLVAFVALPLPRVEGLPDGAESTNDVPHDRPDMVELHRRAFDGLAAPFSEFLGTACADWVIVDSFHHWAAAAALEHKVPCAMMLLGSAEMIASIADERLEHAETESPAAAGQGRPAAAPTFEVARMKLIR
As to B10, the “FI %Stevioside→rebE” value was determined as 1.5 and the “FI %rebA→rebD” value is 1.4.
